Measured values reported in patent US20240101959A1, “USE OF IL-2R-BETA-GAMMA AGONIST PEPTIDES IN CELL MANUFACTURING” (MEDIKINE, INC., priority 2022, published 2024).
Where two headings read alike, the source gives them in different places. No end group written: not given here.

Assays:
hu-IL-2Rβ subunit = molecular target: T1, hu-IL-2Rβ subunit (Homo sapiens, UniProt P14784); experiment: competitive binding at the specific binding site on the hu-IL-2Rβ subunit
T1 sequence (P14784 27-551): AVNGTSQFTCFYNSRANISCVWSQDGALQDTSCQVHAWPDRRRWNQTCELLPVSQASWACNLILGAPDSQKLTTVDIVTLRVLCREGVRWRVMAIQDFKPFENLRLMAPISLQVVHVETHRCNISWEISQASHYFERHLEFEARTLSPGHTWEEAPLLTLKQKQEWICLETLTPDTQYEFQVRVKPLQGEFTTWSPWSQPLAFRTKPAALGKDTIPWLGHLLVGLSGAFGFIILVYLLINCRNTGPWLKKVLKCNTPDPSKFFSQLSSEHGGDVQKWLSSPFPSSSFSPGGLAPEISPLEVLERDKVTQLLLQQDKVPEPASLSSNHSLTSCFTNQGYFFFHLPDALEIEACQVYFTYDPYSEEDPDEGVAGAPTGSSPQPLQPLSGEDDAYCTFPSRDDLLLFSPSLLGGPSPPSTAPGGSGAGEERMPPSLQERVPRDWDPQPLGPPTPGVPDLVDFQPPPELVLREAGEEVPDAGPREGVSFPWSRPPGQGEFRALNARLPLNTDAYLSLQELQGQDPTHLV
Excerpt: This specific binding site on the hu-IL-2Rβ subunit to which the group of IL-2Rβ ligands bind can be characterized using competitive binding assays as described.

IL-2Rβ = molecular target: T2, IL-2Rβ (Homo sapiens, UniProt P14784); experiment: competition with IL-2 binding to IL-2Rβ
T2 sequence (P14784 27-551): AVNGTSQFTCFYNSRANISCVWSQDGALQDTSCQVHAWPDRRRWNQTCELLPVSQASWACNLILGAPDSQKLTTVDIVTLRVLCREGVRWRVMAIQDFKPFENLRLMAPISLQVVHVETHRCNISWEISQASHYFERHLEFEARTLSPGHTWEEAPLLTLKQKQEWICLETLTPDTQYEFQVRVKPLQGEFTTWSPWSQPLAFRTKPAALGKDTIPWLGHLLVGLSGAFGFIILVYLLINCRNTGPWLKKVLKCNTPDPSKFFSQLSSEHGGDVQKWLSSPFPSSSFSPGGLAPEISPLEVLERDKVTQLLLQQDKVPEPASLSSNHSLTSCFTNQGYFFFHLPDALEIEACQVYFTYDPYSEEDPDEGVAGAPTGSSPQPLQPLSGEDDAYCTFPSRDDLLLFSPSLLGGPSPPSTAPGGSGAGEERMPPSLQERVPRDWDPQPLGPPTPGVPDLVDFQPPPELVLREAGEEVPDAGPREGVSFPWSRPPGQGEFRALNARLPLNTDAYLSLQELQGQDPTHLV

hu-IL-2Rγc subunit [1] = molecular target: T3, hu-IL-2Rγc subunit (Homo sapiens, UniProt P31785); experiment: competitive binding at the specific binding site on the hu-IL-2Rγc subunit
T3 sequence (P31785 23-369): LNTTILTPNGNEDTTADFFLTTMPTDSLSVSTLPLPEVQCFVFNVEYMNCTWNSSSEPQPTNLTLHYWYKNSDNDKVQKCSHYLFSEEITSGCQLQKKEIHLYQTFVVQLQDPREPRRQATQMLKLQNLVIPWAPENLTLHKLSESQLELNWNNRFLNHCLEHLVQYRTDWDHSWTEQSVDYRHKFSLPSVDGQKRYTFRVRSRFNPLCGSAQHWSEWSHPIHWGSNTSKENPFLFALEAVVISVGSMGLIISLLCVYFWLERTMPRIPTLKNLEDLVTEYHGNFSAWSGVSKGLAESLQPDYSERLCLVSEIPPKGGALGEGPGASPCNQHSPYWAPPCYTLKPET

hu-IL-2Rγc subunit [2] = molecular target: T4, hu-IL-2Rγc subunit (human, UniProt P31785 23-262, limits assumed)
T4 sequence (looked up): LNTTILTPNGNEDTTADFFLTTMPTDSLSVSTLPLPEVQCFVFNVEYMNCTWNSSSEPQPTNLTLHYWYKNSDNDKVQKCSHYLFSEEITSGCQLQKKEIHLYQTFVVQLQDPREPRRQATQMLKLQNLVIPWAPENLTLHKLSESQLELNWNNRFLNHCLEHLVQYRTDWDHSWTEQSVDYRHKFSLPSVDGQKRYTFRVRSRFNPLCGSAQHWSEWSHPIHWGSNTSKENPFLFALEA

hu-IL-2Rγc subunit [3] = molecular target: T4, hu-IL-2Rγc subunit; experiment: phage ELISA competition assay
[4] = molecular target: T5, hu-IL-2Rγc subunit (human), P31785
T5 chain: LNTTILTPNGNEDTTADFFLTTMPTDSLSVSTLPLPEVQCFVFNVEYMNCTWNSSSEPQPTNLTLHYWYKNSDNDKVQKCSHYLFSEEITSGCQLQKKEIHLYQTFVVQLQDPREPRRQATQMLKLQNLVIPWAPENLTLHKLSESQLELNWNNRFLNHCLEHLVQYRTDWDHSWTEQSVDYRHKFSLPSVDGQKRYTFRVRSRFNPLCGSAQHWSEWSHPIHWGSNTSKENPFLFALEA

[5] = molecular target: T5, hu-IL-2Rγc subunit (human), P31785

Molecule: D C S M W E G V E L C W (DCSMWEGVELCW) [SEQ ID NO: 935]
- competition with the group of IL-2Rβ ligands for the specific binding site on the IL-2Rβ subunit (hu-IL-2Rβ subunit): does not compete
- competition with IL-2 binding to IL-2Rβ (IL-2Rβ): do not bind competitively

Molecule: S L L K C Y N A S T C A S V F (SLLKCYNASTCASVF) [SEQ ID NO: 723]
- competition with the group of IL-2Rγc ligands (SEQ ID NO: 935-940) for the specific binding site on the hu-IL-2Rγc subunit (hu-IL-2Rγc subunit [1]): do not compete

Molecule: R S C Y Y K R P R L W C S E (RSCYYKRPRLWCSE) [SEQ ID NO: 931]
- competition with the group of IL-2Rβ ligands for the specific binding site on the IL-2Rβ subunit (hu-IL-2Rβ subunit): does not compete

Molecule: N M C L V G D Y W P S C Q I (NMCLVGDYWPSCQI) [SEQ ID NO: 933]
- competition with IL-2 binding to IL-2Rβ (IL-2Rβ): do not bind competitively

Molecule: Y D C R I A Q V G E L C D L (YDCRIAQVGELCDL) [SEQ ID NO: 932]
- competition with IL-2 binding to IL-2Rβ (IL-2Rβ): do not bind competitively
- competition with the group of IL-2Rγc ligands (SEQ ID NO: 935-940) for the specific binding site on the hu-IL-2Rγc subunit (hu-IL-2Rγc subunit [1]): does not compete

Molecule: R W G D V G D L L M P L (RWGDVGDLLMPL) [SEQ ID NO: 934]
- competition with IL-2 binding to IL-2Rβ (IL-2Rβ): do not bind competitively

B1: SEQ ID NO 667 (peptide)
peptide: IECEEWAGVELCWL
- IC50 (hu-IL-2Rγc subunit [2]): < 100 µM
- IC50 (hu-IL-2Rγc subunit [3]): < 10 µM

B2: SEQ ID NO 643 (peptide)
peptide: MVNREVVVCEDWYGVELCWQ
- IC50 (hu-IL-2Rγc subunit [2]): < 100 µM
- IC50 (hu-IL-2Rγc subunit [3]): < 10 µM

B3: SEQ ID NO 646 (peptide)
peptide: DVECVDWGGVELCWH
- IC50 (hu-IL-2Rγc subunit [2]): < 100 µM
- IC50 (hu-IL-2Rγc subunit [3]): < 10 µM

B4: SEQ ID NO 693 (peptide)
peptide: VVCEVFQGVELCWCENEEFT
- IC50 (hu-IL-2Rγc subunit [2]): < 100 µM
- IC50 (hu-IL-2Rγc subunit [3]): < 10 µM

B5: SEQ ID NO 659 (peptide)
peptide: RLLNSVVECLDWEGVELCWQ
- IC50 (hu-IL-2Rγc subunit [2]): < 100 µM
- IC50 (hu-IL-2Rγc subunit [3]): < 10 µM

B6: SEQ ID NO 670 (peptide)
peptide: FAHHGVVECQEWYGVELCWQ
- IC50 (hu-IL-2Rγc subunit [2]): < 100 µM
- IC50 (hu-IL-2Rγc subunit [3]): < 10 µM

B7: SEQ ID NO 651 (peptide)
peptide: YSRELYVQCEDWEGVELCWI
- IC50 (hu-IL-2Rγc subunit [2]): < 100 µM
- IC50 (hu-IL-2Rγc subunit [3]): < 10 µM

B8: SEQ ID NO 664 (peptide)
peptide: EGSTTTIECEEWAGVELCWL
- IC50 (hu-IL-2Rγc subunit [2]): < 100 µM
- IC50 (hu-IL-2Rγc subunit [3]): < 10 µM

B9: SEQ ID NO 749 (peptide)
peptide: GGVVCQDWEGVELCWQGPPA
- IC50 (hu-IL-2Rγc subunit [2]): < 100 µM

B10: SEQ ID NO 641 (peptide)
peptide: LALRKEVVCQEYYGVELCWI
- IC50 (hu-IL-2Rγc subunit [2]): < 100 µM
- IC50 (hu-IL-2Rγc subunit [3]): < 10 µM

B11: SEQ ID NO 686 (peptide)
peptide: VVCQEWEGVELCWVEPPLLP
- IC50 (hu-IL-2Rγc subunit [2]): < 100 µM
- IC50 (hu-IL-2Rγc subunit [3]): < 10 µM

B12: SEQ ID NO 711 (peptide)
peptide: RTGVECQDWHGVELCWPVWE
- IC50 (hu-IL-2Rγc subunit [2]): < 100 µM
- IC50 (hu-IL-2Rγc subunit [3]): < 10 µM

B13: SEQ ID NO 936 (peptide)
peptide: KVCEMWGGVLLCWN
modifications: not checked
- IC50 [4]: < 10 µM
- IC50 [5]: < 100 µM

B14: SEQ ID NO 708 (peptide)
peptide: KKIVVCQDWGGVELCWTEDD
- IC50 (hu-IL-2Rγc subunit [2]): < 100 µM
- IC50 (hu-IL-2Rγc subunit [3]): < 10 µM

B15: SEQ ID NO 714 (peptide)
peptide: ILCEEWQGVELCWLEGGGS
- IC50 (hu-IL-2Rγc subunit [2]): < 100 µM
- IC50 (hu-IL-2Rγc subunit [3]): < 10 µM

B16: SEQ ID NO 712 (peptide)
peptide: GYGVVCEDFRGVELCWLERK
- IC50 (hu-IL-2Rγc subunit [2]): < 100 µM
- IC50 (hu-IL-2Rγc subunit [3]): < 10 µM

B17: SEQ ID NO 698 (peptide)
peptide: VTCQEYEGVELCWTVGCAYS
- IC50 (hu-IL-2Rγc subunit [2]): < 100 µM
- IC50 (hu-IL-2Rγc subunit [3]): < 10 µM

B18: SEQ ID NO 673 (peptide)
peptide: RSNQTVVECQDWEGVELCWQ
- IC50 (hu-IL-2Rγc subunit [2]): < 100 µM
- IC50 (hu-IL-2Rγc subunit [3]): < 10 µM

B19: SEQ ID NO 716 (peptide)
peptide: IECEEWAGVELCWL
- IC50 (hu-IL-2Rγc subunit [3]): < 10 µM

B20: SEQ ID NO 689 (peptide)
peptide: KTTVACQDWGGVELCWVERV
- IC50 (hu-IL-2Rγc subunit [2]): < 100 µM
- IC50 (hu-IL-2Rγc subunit [3]): < 10 µM

B21: SEQ ID NO 674 (peptide)
peptide: VVCQEWEGVELCWYAGECMQ
- IC50 (hu-IL-2Rγc subunit [2]): < 100 µM
- IC50 (hu-IL-2Rγc subunit [3]): < 10 µM

B22: SEQ ID NO 748 (peptide)
peptide: GGVVCQDWEGVELCWQPPA
modifications: not fully specified (bridges); cysteine pairing not given here
- IC50 (hu-IL-2Rγc subunit [2]): < 100 µM

B23: SEQ ID NO 692 (peptide)
peptide: KPVVVCEEWQGVELCWLEIQ
- IC50 (hu-IL-2Rγc subunit [2]): < 100 µM
- IC50 (hu-IL-2Rγc subunit [3]): < 10 µM

B24: SEQ ID NO 649 (peptide)
peptide: AHSRQEVVCEEWYGVELCWI
- IC50 (hu-IL-2Rγc subunit [2]): < 100 µM
- IC50 (hu-IL-2Rγc subunit [3]): < 10 µM

B25: SEQ ID NO 637 (peptide)
peptide: IECDTSYGVYICWQ
- IC50 (hu-IL-2Rγc subunit [2]): < 100 µM
- IC50 (hu-IL-2Rγc subunit [3]): < 10 µM

B26: SEQ ID NO 715 (peptide)
peptide: VGIECEEWAGVELCWL
- IC50 (hu-IL-2Rγc subunit [2]): < 100 µM
- IC50 (hu-IL-2Rγc subunit [3]): < 10 µM

B27: SEQ ID NO 672 (peptide)
peptide: WSKKAEVVCEEWGGVEFCWI
- IC50 (hu-IL-2Rγc subunit [2]): < 100 µM
- IC50 (hu-IL-2Rγc subunit [3]): < 10 µM

B28: SEQ ID NO 684 (peptide)
peptide: KLTVECQDWDGVELCWVGVE
- IC50 (hu-IL-2Rγc subunit [2]): < 100 µM
- IC50 (hu-IL-2Rγc subunit [3]): < 10 µM

B29: SEQ ID NO 666 (peptide)
peptide: RSDDEVVVCQEWEGVELCWQ
- IC50 (hu-IL-2Rγc subunit [2]): < 100 µM
- IC50 (hu-IL-2Rγc subunit [3]): < 10 µM

B30: SEQ ID NO 675 (peptide)
peptide: ILCQEFEGVELCWLEESLAE
- IC50 (hu-IL-2Rγc subunit [2]): < 100 µM
- IC50 (hu-IL-2Rγc subunit [3]): < 10 µM

B31: SEQ ID NO 661 (peptide)
peptide: VVCQEWEGVELCWC
- IC50 (hu-IL-2Rγc subunit [2]): < 100 µM
- IC50 (hu-IL-2Rγc subunit [3]): < 10 µM
